# Experiments:
# [1] = target: ctXPD (XPD helicase from Chaetomium thermophilum) (Chaetomium thermophilum)
# [2] = test system: ctXPD;ctp44 (Chaetomium thermophilum;Chaetomium thermophilum); test: fluorescence anisotropy; conditions: FA: 20 mM HEPES pH 7.5, 30 mM KCl, 5 mM MgCl2, 1 mM TCEP, 10 nM DNA, room temperature, photo-cross-linking: 20 mM HEPES pH 7.5, 50 mM KCl
# [3] = test system: ctXPD (Chaetomium thermophilum); test: photo-cross-linking; conditions: 5 mM Mg2+, FA: 20 mM HEPES pH 7.5, 30 mM KCl, 5 mM MgCl2, 1 mM TCEP, 10 nM DNA, photo-cross-linking: 20 mM HEPES pH 7.5, 50 mM KCl
# [4] = test system: ctXPD;ctp44 (Chaetomium thermophilum;Chaetomium thermophilum); test: photo-cross-linking; conditions: 5 mM Mg2+, 2.5 mM ATP, FA: 20 mM HEPES pH 7.5, 30 mM KCl, 5 mM MgCl2, 1 mM TCEP, 10 nM DNA, room temperature, photo-cross-linking: 20 mM HEPES pH 7.5, 50 mM KCl
substance,measurement,setting,value
ctp44 (1-285) (domain or fragment),"ATPase activity of ctXPD (NADH-coupled assay, 37°C): activation by 4 to 1000 nM ctp44 titrated onto 250 nM ctXPD in the presence of 1 μM ssDNA",[1],82 nM
ATGCCTACAGCAAGCCTATGCCTACAGCATCCAGGGNGACGGTGCCGAG [ss-nFlu 49],K half,[2]; position 37 (N; printed F) = nFlu lesion,3 nM
AAGCCTATGCCTACAGCATCCAGGGCGACGGTGCCGAGGATGACGATGAGCGCA [ss-Fab(g)-dC 54],binding signal (fold cross-linking vs ds probe),"[3]; position 26 (B) = Fab(g)-dC, room temperature, 5 mM MgCl2, 1 mM …",3
ATGCCTACAGCAAGCCTATGCCTACAGCATCCAGGGCGACGGTGCCGAG [ss-um 49],K half,[2]; none,500 nM
ATGCCTACAGCAAGCCTATGCCTACAGCATCCAGGGCGACGGTGCCGAG [ss-Fap-dC 49],K half,"[2]; 5 mM Mg2+, 2 mM ATP, EC50, Fap-dC at position 37 (position inferred from parallel oligos)",307 nM
same,K half,[2]; Fap-dC at position 37 (position inferred from parallel oligos),200 nM
ATGCCTACAGCAAGCCTATGCCTACAGCATCCAGGGNGACGGTGCCGAG [ss-nAnt 49 (ss-Ant)],K half,"[2]; position 37 (N; printed A) = nAnt, N-[6-(9-anthracenylcarbamoyl)hexanoyl]-3-amino-1,2-propanediol, non-nucleoside lesion",63 nM
AAGCCTATGCCTACAGCATCCAGGGCGACGGTGCCGAGGATGACGATGAGCGCA / TGCGCTCATCGTCATCCTCGGCACCGTCGCCCTGGATG [fs-Fab(g)-dC 54/38],binding signal (fold vs same mixture without ATP),"[4]; ctXPD adduct, position 26 of strand 1 (B) = Fab(g)-dC",1.8
same,binding signal (fold vs same mixture without ATP),"[4]; ctp44 adduct, position 26 of strand 1 (B) = Fab(g)-dC",2
same,binding signal (fold vs same probe without ATP),"[3]; 2.5 mM ATP, no ctp44, position 26 of strand 1 (B) = Fab(g)-dC, room temperature",2.1
AAGCCTATGCCTACAGCATCCAGGGCGACGGTGCCGAGGATGACGATGAGCGCA [ss-Fap-dC 54],binding signal (fold cross-linking vs ds probe),"[3]; Fap-dC at position 26 (position inferred from parallel oligos), room …",3
ATGCCTACAGCAAGCCTATGCCTACAGCATCCAGGGCGACGGTGCCGAG [ss-Fab(g)-dC 49],K half,"[2]; 5 mM Mg2+, 2 mM ATP, EC50, position 37 (B) = Fab(g)-dC",268 nM
AAGCCTATGCCTACAGCATCCAGGGCGACGGTGCCGAGGATGACGATGAGCGCA / TGCGCTCATCGTCATCCTCGGCACCGTCGCCCTGGATG [fs-Fap-dC 54/38],binding signal (fold vs same mixture without ATP),"[4]; ctXPD adduct, Fap-dC at position 26 of strand 1 (position inferred from parallel oligos)",2.6
same,binding signal (fold vs same mixture without ATP),"[4]; ctp44 adduct, Fap-dC at position 26 of strand 1 (position inferred from parallel oligos)",2
same,binding signal (relative cross-linking (reference)),"[3]; no ATP, no ctp44, Fap-dC at position 26 of strand 1 (position inferred from parallel oligos), room temperature",1

# Reference: article PMC7991749
